Data on 39 molecules can be found in paper PMC314469, “Protein Interaction Networks by Proteome Peptide Scanning” (PLoS Biology, 2004).

The test addresses T1, Abp1 SH3 (ABP1_YEAST), P15891.
T1 chain: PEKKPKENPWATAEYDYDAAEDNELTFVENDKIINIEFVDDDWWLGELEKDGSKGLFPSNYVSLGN
Briefly: SPOT array.
As for IAVISVLPNFKKP [YBL004W 947-959], the normalised SPOT signal, Boehringer light units (BLU); mean over the file's lines of this peptide stood at 29.
Then HLYSMDPPLDRKP [YGL131C 343-355], with 172.
With IAVGLDALNIPHKP [YHR033W 54-67] the figure was 142; with IDLVKHSPGAIKP [YHL030W 1303-1315], 84.8; with IERQRLSMVTPSKP [YCL063W 140-153], 2630.
Molecule IGNDRASPTNKKP [YGR097W 338-350] yielded a normalised SPOT signal, Boehringer light units (BLU); mean over the file's lines of this peptide of 420.
Consider IAHFNYLPPTIRP [YKR099W 624-636], for which the normalised SPOT signal, Boehringer light units (BLU); mean over the file's lines of this peptide was determined as 197.
The molecule IDRIPPPTGRPDKP [YLR289W 221-234] registered a normalised SPOT signal, Boehringer light units (BLU); mean over the file's lines of this peptide of 118.
IFPPIDDPLPFKP [YDR284C 246-258] returned a normalised SPOT signal, Boehringer light units (BLU); mean over the file's lines of this peptide of 62.
As to IGRNIVKVVYPDKP [YJL025W 348-361], the normalised SPOT signal, Boehringer light units (BLU); mean over the file's lines of this peptide came to 105.
The molecule HSAATALPALRRP [YLR162W 19-31] showed a normalised SPOT signal, Boehringer light units (BLU); mean over the file's lines of this peptide of 80.8.
IEFKDVSFSYPTRP [YPL270W 493-506] came in with a normalised SPOT signal, Boehringer light units (BLU); mean over the file's lines of this peptide of 89.
Molecule IGLFGKDLSKPGRP [YBR243C 53-66] displayed a normalised SPOT signal, Boehringer light units (BLU); mean over the file's lines of this peptide of 150.
Then HNTSSSIPKISRP [YGR014W 1282-1294], with 765; and IDILGLAELAPGKP [YLR304C 721-734], with 124; and HVNLDKGKHVPSKP [YKL054C 142-155], with 105.
With IESLTTIMRIPSKP [YBR250W 264-277] the figure was 204; with HVDEDGEPIDIKP [YLR429W 120-132], 202; with IFLNYEWPQWLRP [YOR336W 1160-1172], 163.
IEKTKDILSIPPKP [YOR219C 489-502] came in with a normalised SPOT signal, Boehringer light units (BLU); mean over the file's lines of this peptide of 63.2.
HVPIVKRNKYPPRP [YDR195W 518-531] registered a normalised SPOT signal, Boehringer light units (BLU); mean over the file's lines of this peptide of 267.
Then HMTHNRKPAEPTKP [YML075C 1020-1033], with 2090; and IAIEREEDSIPSRP [YMR221C 251-264], with 99.1; and HYPPGYDPTDPNRP [YER166W 1422-1435], with 176.
In turn, HTDDLPEGIRPFKP [YLR090W 428-441] registered a normalised SPOT signal, Boehringer light units (BLU); mean over the file's lines of this peptide of 61.
In turn, HPEYTSKVLDPSKP [YBL039C 535-548] displayed a normalised SPOT signal, Boehringer light units (BLU); mean over the file's lines of this peptide of 69.3.
The molecule IATSADYIFIPEKP [YMR205C 403-416] gave a normalised SPOT signal, Boehringer light units (BLU); mean over the file's lines of this peptide of 90.5.
In the case of HYAKNRTPGVMKP [YLR244C 308-320], the normalised SPOT signal, Boehringer light units (BLU); mean over the file's lines of this peptide came to 419.
On to HTEQNNPPKPQKP [YOR290C 412-424], for which the normalised SPOT signal, Boehringer light units (BLU); mean over the file's lines of this peptide is 129.
Molecule IDIPVRQPYSKKP [YDR422C 269-281] had a normalised SPOT signal, Boehringer light units (BLU); mean over the file's lines of this peptide of 639.
IFYSLIYPYLIKP [YIL067C 132-144]: the normalised SPOT signal, Boehringer light units (BLU); mean over the file's lines of this peptide was determined as 90.9.
HSAIQSLSFHPSKP [YJL069C 248-261] gave a normalised SPOT signal, Boehringer light units (BLU); mean over the file's lines of this peptide of 194.
For the molecule HPEYTSKVLEPSRP [YJR103W 537-550], the normalised SPOT signal, Boehringer light units (BLU); mean over the file's lines of this peptide was determined as 91.6.
HTMTSPPPVFNKP [YDL195W 1091-1103] gave a normalised SPOT signal, Boehringer light units (BLU); mean over the file's lines of this peptide of 1200.
IFLNRKKPALFRP [YNL230C 281-293] showed a normalised SPOT signal, Boehringer light units (BLU); mean over the file's lines of this peptide of 2850.
HYDVDANIMPPPKP [YBR108W 510-523]: the normalised SPOT signal, Boehringer light units (BLU); mean over the file's lines of this peptide was 108.
Then IDFFLALFSDPARP [YHL005C 58-71], with 21.9; and HLSLTAVPSFLRP [YJR090C 735-747], with 62.7; and HLNNSDIHSQPNKP [YOR329C 803-816], with 87.4.
